Measured values from patent US11618906B2, “Hydroxylation techniques” (HYPHA DISCOVERY LTD., priority 2018, dated 2023).

Assays:
Type in all cases: biochemical
[1] = Metabolism of celecoxib by P450 aluC09 and mutants; conditions: percent of substrate being converted; 0.125 mg/ml, 27° C., 16-20 hours; [CYP] per enzyme as in Table 8
Description: (§1) Lyophilised material of mutants of CYP450aluC09, ferredoxinaluF03 and ferredoxin reductaseSCF15A was made as described in examples 3 and 4 and suspended in water (0.5 mL per vial) and biocatalysis was performed at 27° C. in the following conditions: 50 mM potassium phosphate pH 7.4, 5 mM MgCl2, 0.125 mg/ml substrate compound such as diclofenac (Sigma-Aldrich, UK), Aceclofenac (Tokyo Chemical Industry UK Ltd, UK), Indomethacin (Sigma-Aldrich, UK), Flufenamic acid (Sigma-Aldrich, UK), Napropamide (Sigma-Aldrich, UK), celecoxib (LC Laboratories, USA), valsartan (Tokyo Chemical Industry UK Ltd, UK), ruxolitinib (LC Laboratories, USA), 4-pyrrolidylacetophenone (Sigma-Aldrich, UK), tofacitinib (LC Laboratories, USA), bosentan (CarboSynth Ltd, UK), buparvaquone (MedChemtronica, Sweden), BIRB796 (Stratech Scientific Limited, UK), epothilone B (LC Laboratories, USA), ritonavir (Tokyo Chemical Industry UK Ltd, UK) or tivantinib (MedChemtronica, Sweden), P450AluC09 (concentration as in Table 8), 5 mM G6P, 1 mM NADP, 2 UN/ml G6PDH in a final volume of 100 μL. After 16-20 hours at 200 rpm (5 cm orbital shaker, Kuhner AG, Switzerland), reactions were extracted with an equal volume of acetonitrile, centrifuged to remove precipitated proteins and conversion assessed by UPLC-MS analysis.
(§2) However, of particular note when considering P450 concentration are the results for mutants M12, M20 and M34, as well as the deleterious impact on the range of substrate utility in mutants M39 and M40.

[2] = Metabolism of epothilone B by P450 aluC09 and mutants; conditions: percent of substrate being converted; 0.125 mg/ml, 27° C., 16-20 hours; [CYP] per enzyme as in Table 8
Description: as §1, §2

[3] = Metabolism of ritonavir by P450 aluC09 and mutants; conditions: percent of substrate being converted; 0.125 mg/ml, 27° C., 16-20 hours; [CYP] per enzyme as in Table 8
Description: as §1, §2

[4] = Metabolism of tofacitinib by P450 aluC09 and mutants; conditions: percent of substrate being converted; 0.125 mg/ml, 27° C., 16-20 hours; [CYP] per enzyme as in Table 8
Description: as §1, §2

[5] = Metabolism of bosentan by P450 aluC09 and mutants; conditions: percent of substrate being converted; 0.125 mg/ml, 27° C., 16-20 hours; [CYP] per enzyme as in Table 8
Description: as §1, §2

[6] = Hydroxylation of aceclofenac catalysed by cytochrome P450 aluC09 and mutants; conditions: for Aceclofenac (Substrate) (1.80 mins) / Dihydroxy-Aceclofenac (1.42 mins) / Hydroxy-Aceclofenac (1) (1.64 min) / Hydroxy-Aceclofenac (2) (1.60 min): % by UV peak area at 275 nm, 0.125 mg/ml substrate, 27° C., 16-20 hours; for Hydroxylated Ratio 2:1: aceclofenac, ratio of UV peak areas at 275 nm
Description: as §1
(§3) UPLC data was obtained as follows:
(§4) Column: Acquity UPLC BEH Shield RP18 1.7 μm 2.1 mm i.d. 50 mm length
(§5) Solvents: H2O, B: Acetonitrile, both with 0.1% Formic acid
(§6) Detector: Waters Acquity UPLC PDA (UV-Vis detection) and Waters Acquity UPLC QDA (MS)
Chromatograms are provided in FIGS. 5a-c; aceclofenac elutes at 1.80 minutes, hydroxy-aceclofenac acid 1 elutes at 1.64 minutes, hydroxy-aceclofenac acid 2 elutes at 1.60 minutes and dihydroxy-aceclofenac elutes at 1.42 minutes.

[7] = O-demethylation of indomethacin catalysed by cytochrome P450 aluC09 and mutants; conditions: % by UV peak area at 275 nm; 0.125 mg/ml substrate, 27° C., 16-20 hours
Description: as §1, §3, §4, §5, §6

[8] = Metabolism of ruxolitinib by P450 aluC09 and mutants; conditions: percent of substrate being converted; 0.125 mg/ml, 27° C., 16-20 hours; [CYP] per enzyme as in Table 8
Description: as §1, §2

[9] = Hydroxylation / de-N-ethylation of napropamide catalysed by cytochrome P450 aluC09 and mutants
Description: as §1, §3, §4, §5, §6
Napropamide elutes at 1.76 minutes, unidentified metabolite (−2 Da) elutes at 1.90 minutes, desethyl-napropamide elutes at 1.62 minutes, hydroxy-napropamide 1 elutes at 1.53 minutes and hydroxy-napropamide 2 elutes at 1.52 minutes and the desethyl-hydroxy-napropamide product elutes at 1.41 minutes.

[10] = Metabolism of valsartan by P450 aluC09 and mutants; conditions: percent of substrate being converted; 0.125 mg/ml, 27° C., 16-20 hours; [CYP] per enzyme as in Table 8
Description: as §1, §2

[11] = Hydroxylation of diclofenac catalysed by cytochrome P450 aluC09 and mutants (UPLC-PDA-MS); conditions: for 4′,5-dihydroxy-diclofenac 1.38 mins / 4′-hydroxy-diclofenac (1) 1.62 mins / 5-hydroxy-diclofenac (2) 1.58 mins / Diclofenac (Substrate) 1.81 mins: % by UV peak area at 275 nm, 0.125 mg/ml substrate, 27° C., 16-20 hours; for Hydroxylated Ratio hydroxy 1:hydroxy 2: diclofenac, ratio of UV peak areas at 275nm
Description: as §1, §3, §4, §5, §6
Illustrative results for the hydroxylation of diclofenac by CYP450aluC09 and selected T291x mutants are summarised below in Table 3 with representative chromatograms resented in FIG. 3a-c; retention times: diclofenac 1.85-1.88 minutes, 5-hydroxydiclofenac 1.60-1.63 minutes, 4′-hydroxydiclofenac 1.65-1.68 minutes, 4′,5-dihydroxydiclofenac 1.40-1.42 minutes. The chromatographic retention times and mass spectra coincided with those of authentic samples.

[12] = Hydroxylation of flufenamic acid catalysed by cytochrome P450 aluC09 and mutants; conditions: for Flufenamic Acid (Substrate) 1.93 mins / Hydroxy-Flufenamic Acid (1) 1.69 mins / Hydroxy-Flufenamic Acid (2) 1.65 mins: % by UV peak area at 275 nm, 0.125 mg/ml substrate, 27° C., 16-20 hours; for Hydroxylated Ratio 1:2: flufenamic acid, ratio of UV peak areas at 275 nm
Description: as §1, §3, §4, §5, §6
Flufenamic acid elutes at 1.93 minutes, hydroxy-flufenamic acid 1 elutes at 1.68 minutes and hydroxy-flufenamic acid 2 elutes at 1.65 minutes.

[13] = Metabolism of BIRB796 by P450 aluC09 and mutants; conditions: percent of substrate being converted; 0.125 mg/ml, 27° C., 16-20 hours; [CYP] per enzyme as in Table 8
Description: as §1, §2

[14] = Metabolism of 4-pyrrolidylacetophenone by P450 aluC09 and mutants; conditions: percent of substrate being converted; 0.125 mg/ml, 27° C., 16-20 hours; [CYP] per enzyme as in Table 8
Description: as §1, §2

[15] = Metabolism of tivantinib by P450 aluC09 and mutants; conditions: percent of substrate being converted; 0.125 mg/ml, 27° C., 16-20 hours; [CYP] per enzyme as in Table 8
Description: as §1, §2

[16] = % by UV peak area at 275 nm, 0.125 mg/ml substrate, 27° C., 16-20 hours

| Molecule | % conversions (avg) Celecoxib [1] [%] | % conversions (avg) Epothilone B [2] [%] | % conversions (avg) Ritonavir [3] [%] | % conversions (avg) Tofacitinib [4] [%] | % conversions (avg) Bosentan [5] [%] | Aceclofenac (Substrate) (1.80 mins) [6] [%] | Dihydroxy-Aceclofenac (1.42 mins) [6] [%] | Hydroxy-Aceclofenac (1) (1.64 min) [6] [%] | Hydroxy-Aceclofenac (2) (1.60 min) [6] [%] | Hydroxylated Ratio 2:1 [6] | Indomethacin (1.74 mins) [7] [%] | O-demethyl-Indomethacin (1.52 mins) [7] [%] | % conversions (avg) Ruxolitinib [8] [%] | % conversions (avg) Valsartan [10] [%] | 4′,5-dihydroxy-diclofenac 1.38 mins [11] [%] | 4′-hydroxy-diclofenac (1) 1.62 mins [11] [%] | 5-hydroxy-diclofenac (2) 1.58 mins [11] [%] | Diclofenac (Substrate) 1.81 mins [11] [%] | Hydroxylated Ratio hydroxy 1:hydroxy 2 [11] | Flufenamic Acid (Substrate) 1.93 mins [12] [%] | further results |
| --- | --- | --- | --- | --- | --- | --- | --- | --- | --- | --- | --- | --- | --- | --- | --- | --- | --- | --- | --- | --- | --- |
| aluC09M18: cytochrome P450 aluC09 mutant T291Q; amino acid sequence SEQ ID NO: 20 (protein, listed as Amycolatopsis lurida) MTDVEETTATLPLARKCPFSPPPEYERLRRESPVSRVGLPSGQTAWALTRLEDIREMLSSPHFSSDRQSPSFPLMVARQIRREDKPFRPSLIAMDPPEHSRARRDVVGEFTVKRMKALQPRIQQIVDEHLDALLAGPKPADLVQALSLPVPSLVICELLGVPYSDHEFFQSCSSRMLSREVTAEERMTAFEQLENYLDELVTKKEANATEDDLLGRQILKQRETGEADHGELVGLAFLLLIAGHETTANMISLGTVTLLENPDQLAKIKADPGKTLAAIEELLRVFTIAEQATSRFATADVEIGGTLIRAGEGVVGLSNAGNHDPDGFENPDTFDIERGARHHVAFGFGVHQCLGQNLARLELQIVFDTLFRRVPGLRIAVPVDELPFKHDSTIYGLHALPVTW | 3.7 | 24.8 | 53.3 | 2.2 | 100 | 10.2 | 49.1 | 5.9 | 34.9 | 5.9 | 83.6 | 16.4 | 38.5 | 27.1 | 1.9 | 45.5 | 12.3 | 41.6 | 3.7 | 86.1 | Desethyl Napropamide (1.62 min) [9, 16]: 49.5%; Desethyl-hydroxy-Napropamide (1.41 min) [9, 16]: 4.1%; Hydroxy-Napropamide (1) (1.53 min) [9, 16]: 1.4%; Hydroxy-Napropamide (2), (1.52 min) [9, 16]: 2.5%; M-2Da (unidentified) (1.89 min) [9, 16]: 5.7%; Napropamide (substrate) [9, 16]: 38.3%; Hydroxylated Ratio 2:1 ([9]; napropamide, ratio of UV peak areas): 1.8; Hydroxy-Flufenamic Acid (1) 1.69 mins [12]: 9.1%; Hydroxy-Flufenamic Acid (2) 1.65 mins [12]: 4.8%; Hydroxylated Ratio 1:2 [12]: 1.9; % conversions (avg) BIRB796 [13]: 24.3%; % conversions (avg) 4-pyrrolidylacetophenone [14]: 14.1%; % conversions (avg) Tivantinib [15]: 59.7% |
| aluC09M30: cytochrome P450 aluC09 double mutant T291E, V315L; amino acid sequence SEQ ID NO: 108 (protein, listed as Amycolatopsis lurida) MTDVEETTATLPLARKCPFSPPPEYERLRRESPVSRVGLPSGQTAWALTRLEDIREMLSSPHFSSDRQSPSFPLMVARQIRREDKPFRPSLIAMDPPEHSRARRDVVGEFTVKRMKALQPRIQQIVDEHLDALLAGPKPADLVQALSLPVPSLVICELLGVPYSDHEFFQSCSSRMLSREVTAEERMTAFEQLENYLDELVTKKEANATEDDLLGRQILKQRETGEADHGELVGLAFLLLIAGHETTANMISLGTVTLLENPDQLAKIKADPGKTLAAIEELLRVFTIAEEATSRFATADVEIGGTLIRAGEGVLGLSNAGNHDPDGFENPDTFDIERGARHHVAFGFGVHQCLGQNLARLELQIVFDTLFRRVPGLRIAVPVDELPFKHDSTIYGLHALPVTW | 3.9 | 32.2 | 20.9 | 0 | 80.4 | 24.1 | 18.4 | 15.0 | 42.5 | 2.8 | 90.1 | 9.9 | 37.5 | 20 | 3.6 | 43.4 | 13.0 | 41.6 | 3.3 | 93.8 | Hydroxy-Flufenamic Acid (1) 1.69 mins [12]: 3.7%; Hydroxy-Flufenamic Acid (2) 1.65 mins [12]: 2.4%; Hydroxylated Ratio 1:2 [12]: 1.5; % conversions (avg) BIRB796 [13]: 18%; % conversions (avg) 4-pyrrolidylacetophenone [14]: 16.6%; % conversions (avg) Tivantinib [15]: 2.7% |
